The text below walks through data of patent US20210032673A1.

Assay [1] has as its target endogenous Arf6 of HEK293T cells (UniProt P62330). The assay can be described thus: cell-based or functional assay.
The target in assay [2] is human Calm1 (NM_006888) with C-terminal triple FLAG tag (human) (UniProt P0DP23). The assay can be described thus: Lumier assay in HEK293T cells, renilla luciferase after anti-FLAG pull-down.
Assay [3] addresses human Calm2 (NM_001743) with C-terminal triple FLAG tag (human) (UniProt P0DP24). The description is as above.
Assay [4] deals with human Calm3 (NM_005184) with C-terminal triple FLAG tag (human) (UniProt P0DP25). The description is as above.
The target of assay [5] is GFP-FLAG [GFP: P42212]. The assay can be described thus: Lumier assay in HEK293T cells, negative control interactor GFP-FLAG (background).
The target of assay [6] is human Calm1 (NM_006888) with C-terminal triple FLAG tag (human) (UniProt P0DP23). The assay can be described thus: Lumier assay in HEK293T cells, renilla luciferase after pull-down normalized to FLAG ELISA.
Assay [7] has as its target human Calm2 (NM_001743) with C-terminal triple FLAG tag (human) (UniProt P0DP24). Described as above.
Assay [8] addresses human Calm3 (NM_005184) with C-terminal triple FLAG tag (human) (UniProt P0DP25). Described as above.
Assay [9] concerns the target calmodulin-sepharose (BioVision) (Homo sapiens (Human)) (UniProt P0DP23). Put plainly: luciferase-IQSEC2 cell extract on calmodulin-sepharose, no added calcium (5 mM EGTA, apocalmodulin), 0.1% Triton X-100, n=6.
Assay [10] shares this target. The assay can be described thus: luciferase-IQSEC2 cell extract on calmodulin-sepharose, free calcium greater than 200 nM (calcium-calmodulin), 0.1% Triton X-100, n=11.
The target is the same in assay [11]. Put plainly: calcium dose-response of luciferase-IQSEC2 binding to calmodulin-sepharose; the number is a calcium concentration, not a protein concentration.

Sequence of endogenous Arf6 of HEK293T cells (P62330 2-175 limits assumed): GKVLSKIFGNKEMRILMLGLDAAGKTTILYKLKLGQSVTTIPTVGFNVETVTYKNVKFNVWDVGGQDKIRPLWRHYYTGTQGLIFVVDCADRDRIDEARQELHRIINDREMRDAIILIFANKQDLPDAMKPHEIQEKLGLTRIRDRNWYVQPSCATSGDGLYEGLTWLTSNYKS

In the case of “renilla luciferase-HAx3-wild type IQSEC2 (full length human IQSEC2, pcDNA3.1 Zeo construct) (from UniProt Q5JU85 1-1488)”, the total Arf6-GTP by ELISA, equivalent amounts of protein extract of stable HEK293T lines (spectrophotometric units) in [1] was found to be 0.06. Further, the fold difference of interaction strength, wild type against A350V IQSEC2 in assay [2] is 34 fold; in assay [3], 15 fold; in assay [4] it was 36 fold. For the same substance, in assay [5], the fold change of interaction strength, wild type against mutant IQSEC2 is 1.07 fold. In addition, the fold higher normalized interaction score, wild type against A350V IQSEC2 was found to be 31 fold in assay [6], 14 fold in [7] and 31 fold in assay [8].

Consider “renilla luciferase-HAx3-A350V IQSEC2 (from UniProt Q5JU85 1-1488)”, for which, in assay [1], the Arf6-GTP promoted, against wild type IQSEC2 protein came out at 30 fold; the increase in total Arf6-GTP by ELISA against cells expressing wild type IQSEC2 was determined as 25%; the total Arf6-GTP by ELISA, equivalent amounts of protein extract of stable HEK293T lines (spectrophotometric units) was determined as 0.075. In assay [9], the luciferase units bound to calmodulin sepharose (luciferase units) turned out to be 48. Also, in [10], the luciferase units bound to calmodulin sepharose (luciferase units) turned out to be 594. Moreover, in assay [11], the free calcium concentration at half-maximal binding is 1 µM.

Take “FLAG-tagged wild type IQSEC2 (pCAGGS) (from UniProt Q5JU85 1-1488)”: in assay [1], the Arf6 activation (Arf6-GTP, GGA3 pulldown and immunoblot) with ionomycin, fold over sham transfected cells turned out to be 8.03 fold; the Arf6 activation (Arf6-GTP, GGA3 pulldown and immunoblot), fold over sham transfected cells is 3.87 fold.
